Columns and labels:
[1] = molecular target: PTDH-PCNA1_(G108C)-PdR (Pseudomonas stutzeri | Sulfolobus solfataricus | Pseudomonas putida); test: dynamic light scattering; diameters of the PTDH-fused proteins compared with their counterparts without PTDH fusion
[2] = molecular target: PTDH-PCNA1_(G108C)-PdR (Pseudomonas stutzeri | Sulfolobus solfataricus | Pseudomonas putida); test: SEC; non-denatured fusion proteins, masses estimated against globular protein standards
[3] = molecular target: PTDH-PCNA3_(R112C/T180C)-P450cam (Pseudomonas stutzeri | Sulfolobus solfataricus | Pseudomonas putida); test: dynamic light scattering; diameters of the PTDH-fused proteins compared with their counterparts without PTDH fusion
[4] = molecular target: PTDH-PCNA3_(R112C/T180C)-P450cam (Pseudomonas stutzeri | Sulfolobus solfataricus | Pseudomonas putida); test: SEC; non-denatured fusion proteins, masses estimated against globular protein standards
[5] = molecular target: the molecule itself; test: as above

## PTDH-PCNA1_(G108C)-PdR
[1]
  stoichiometry N: 2
[2]
  stoichiometry N: 2

## PTDH-PCNA3_(R112C/T180C)-P450cam
[3]
  stoichiometry N: 2
[4]
  stoichiometry N: 2

B1: PTDH-PCNA2_(L171C)-PdX (other)
chain: MLPKLVITHRVHDEILQLLAPHCELMTNQTDSTLTREEILRRCRDAQAMMAFMPDRVDADFLQACPELRVVGCALKGFDNFDVDACTARGVWLTFVPDLLTVPTAELAIGLAVGLGRHLRAADAFVRSGEFQGWQPQFYGTGLDNATVGILGMGAIGLAMADRLQGWGATLQYHARKALDTQTEQRLGLRQVACSELFASSDFILLALPLNADTQHLVNAELLALVRPGALLVNPCRGSVVDEAAVLAALERGQLGGYAADVFEMEDWARADRPRLIDPALLAHPNTLFTPHIGSAVRAVRLEIERCAAQNIIQVLAGARPINAANRLPKAEPAACMKAKVIDAVSFSYILRTVGDFLSEANFIVTKEGIRVSGIDPSRVVFLDIFLPSSYFEGFEVSQEKEIIGFKLEDVNDILKRVLKDDTLILSSNESKLTLTFDGEFTRSFELPLIQVESTQPPSVNLEFPFKAQLLTITFADIIDELSDLGEVLNIHSKENKLYFEVIGDCSTAKVELSTDNGTLLEASGADVSSSYGMEYVANTTKMRRASDSMELYFGSQIPLKLRFKLPQEGYGDFYIAPRADSKVVYVSHDGTRRELDVADGVSLMQAAVSNGIYDIVGDCGGSASCATCHVYVNEAFTDKVPAANEREIGMLESVTAELKPNSRLSCQIIMTPELDGIVVDVPDRQW
[5]
  stoichiometry N: 2
